# From paper PMC4227968
# T1: CzrA (Bacillus subtilis, UniProt O31844 1-107)
# T1 sequence: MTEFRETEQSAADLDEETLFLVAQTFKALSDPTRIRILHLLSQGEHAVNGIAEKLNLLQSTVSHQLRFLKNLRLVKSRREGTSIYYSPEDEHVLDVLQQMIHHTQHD
# B1: cadA promoter operator 28 bp (dsDNA)
# DNA 1: TTATATATGAGTATATGCTCATATATAT
# DNA 2: ATATATATGAGCATATACTCATATATAA
# Molecular target: T1, CzrA
# Experiment: fluorescence anisotropy
binder,measurement,value
B1,binding result,binds
